# Data published in publication PMC10469194.
# Target: REGN10987-based FabH3 heavy chain (VH - GS-G4 linker - IgG1 CH3 K392D, K409D)
# Experiment: pull-down; co-purification from the soluble E. coli lysate by cobalt IMAC on the His6 tag of the heavy chain, native conditions; SDS-PAGE
# REGN10987-based FabH3 heavy chain (VH - GS-G4 linker - IgG1 CH3 K392D, K409D), sequence (heavy, as listed by the source): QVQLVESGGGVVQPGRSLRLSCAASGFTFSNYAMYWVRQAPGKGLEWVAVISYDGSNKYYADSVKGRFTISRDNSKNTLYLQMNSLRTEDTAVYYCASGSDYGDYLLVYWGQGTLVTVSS
substance,measurement,value
"REGN10987-based FabH3 light chain (VL - GS-G4 linker - IgG1 CH3 E356K, D399K)",stoichiometry N,1
